Results taken from IntAct's records for PubMed 21890701.

B1: DNA-binding protein H-NS (Escherichia coli (strain K12)), P0ACF8 (parent)
chain: MSEALKILNNIRTLRAQARECTLETLEEMLEKLEVVVNERREEESAAAAEVEERTRKLQQYREMLIADGIDPNELLNSLAAVKSGTKAKRAQRPAKYSYVDENGETKTWTGQGRTPAVIKKAMDEQGKSLDDFLIKQ
partner: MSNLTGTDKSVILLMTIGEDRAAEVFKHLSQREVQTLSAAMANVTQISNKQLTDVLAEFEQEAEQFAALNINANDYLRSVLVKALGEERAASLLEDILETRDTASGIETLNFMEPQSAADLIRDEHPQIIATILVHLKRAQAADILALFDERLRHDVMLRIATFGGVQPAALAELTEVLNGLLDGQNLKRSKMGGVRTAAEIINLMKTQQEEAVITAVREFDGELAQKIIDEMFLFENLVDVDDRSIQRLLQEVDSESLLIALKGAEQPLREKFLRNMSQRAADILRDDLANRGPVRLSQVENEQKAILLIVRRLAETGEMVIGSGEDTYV
B2: Flagellar motor switch protein FliG (Escherichia coli (strain K12)), P0ABZ1 (parent)
chain: B1 partner
partner: B1 chain
B3: Flagellar motor switch protein FliG (Escherichia coli (strain K12)), P0ABZ1 (parent)
chain: B1 partner
partner: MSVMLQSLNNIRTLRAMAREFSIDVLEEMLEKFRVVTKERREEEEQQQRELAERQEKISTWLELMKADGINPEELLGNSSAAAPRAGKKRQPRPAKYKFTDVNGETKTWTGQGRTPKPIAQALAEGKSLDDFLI

Variants of: B1
Conditions: with flig_ecoli fliG, P0ABZ1

| effect of a mutation on the interaction | Variant |
| --- | --- |
| decreasing interaction strength | MSEALKILNNIRTLRAQARECTLETLEEMLEKLEVVVNERREEESAAAAEVEERTRKLQQYREMLIADGIDPNELLNSLAAVKSGTKAKRAQRPAKYSYVDENGETKTWTGQDRTPAVIKKAMDEQGKSLDDFLIKQ |
| decreasing interaction strength | MSEALKILNNIRTLRAQARECTLETLEEMLEKLEVVVNERREEESAAAAEVEERTRKLQQYREMLIADGIDPNELLNSLAAVKSGTKAKRAQRPAKYSYVDENGETKTWTGQGWTPAVIKKAMDEQGKSLDDFLIKQ |
| decreasing interaction | MSEALKILNNIRTLRAQARECTLETLEEMLEKLEVVVNERREEESAAAAEVEERTRKLQQYREMLIADGIDPNELLNSLAAVKSGTKAKRAQRPAKYSYVDENGETKTWTGDGRTPAVIKKAMDEQGKSLDDFLIKQ |

Variants of: B2
Conditions: with hns_ecoli hns, P0ACF8

| effect of a mutation on the interaction | Variant |
| --- | --- |
| disrupting interaction strength | MSNLTGTDKSVILLMTIGEDRAAEVFKHLSQREVQTLSAAMANVTQISNKQLTDVLAEFEQEAEQFAALNINANDYLRSVLVKALGEERAASLLEDILETRDTASGIETLNFMEPQSAADLIRDEHPQIIATILVHLKRAQAADILALFDERLRHDVMLWIATFGGVQPAALAELTEVLNGLLDGQNLKRSKMGGVRTAAEIINLMKTQQEEAVITAVREFDGELAQKIIDEMFLFENLVDVDDRSIQRLLQEVDSESLLIALKGAEQPLREKFLRNMSQRAADILRDDLANRGPVRLSQVENEQKAILLIVRRLAETGEMVIGSGEDTYV [R160W] |
| disrupting interaction strength | MSNLTGTDKSVILLMTIGEDRAAEVFKHLSQREVQTLSAAMANVTQISNKQLTDVLAEFEQEAEQFAALNINANDYLRSVLVKALGEERAASLLEDILETRDTASGIETLNFMEPQSAADLIRDEWPQIIATILVHLKRAQAADILALFDERLRHDVMLRIATFGGVQPAALAELTEVLNGLLDGQNLKRSKMGGVRTAAEIINLMKTQQEEAVITAVREFDGELAQKIIDEMFLFENLVDVDDRSIQRLLQEVDSESLLIALKGAEQPLREKFLRNMSQRAADILRDDLANRGPVRLSQVENEQKAILLIVRRLAETGEMVIGSGEDTYV [H126W] |
| decreasing interaction strength | MSNLTGTDKSVILLMTIGEDRAAEVFKHLSQREVQTLSAAMANVTQISNKQLTDVLAEFEQEAEQFAALNINANDYLRSVLVKALGEERAASLLEDILETRDTASGIETLNFMEPQSAADLIRDWHPQIIATILVHLKRAQAADILALFDERLRHDVMLRIATFGGVQPAALAELTEVLNGLLDGQNLKRSKMGGVRTAAEIINLMKTQQEEAVITAVREFDGELAQKIIDEMFLFENLVDVDDRSIQRLLQEVDSESLLIALKGAEQPLREKFLRNMSQRAADILRDDLANRGPVRLSQVENEQKAILLIVRRLAETGEMVIGSGEDTYV [E125W] |
| decreasing interaction strength | MSNLTGTDKSVILLMTIGEDRAAEVFKHLSQREVQTLSAAMANVTQISNKQLTDVLAEFEQEAEQFAALNINANDYLRSVLVKALGEERAASLLEDILETRDTASGIETLNFMEPQSAADLIRDEHPWIIATILVHLKRAQAADILALFDERLRHDVMLRIATFGGVQPAALAELTEVLNGLLDGQNLKRSKMGGVRTAAEIINLMKTQQEEAVITAVREFDGELAQKIIDEMFLFENLVDVDDRSIQRLLQEVDSESLLIALKGAEQPLREKFLRNMSQRAADILRDDLANRGPVRLSQVENEQKAILLIVRRLAETGEMVIGSGEDTYV [Q128W] |

Variants of: B3
Conditions: with stpa_ecoli stpA

| effect of a mutation on the interaction | Variant |
| --- | --- |
| disrupting interaction strength | MSNLTGTDKSVILLMTIGEDRAAEVFKHLSQREVQTLSAAMANVTQISNKQLTDVLAEFEQEAEQFAALNINANDYLRSVLVKALGEERAASLLEDILETRDTASGIETLNFMEPQSAADLIRDEWPQIIATILVHLKRAQAADILALFDERLRHDVMLRIATFGGVQPAALAELTEVLNGLLDGQNLKRSKMGGVRTAAEIINLMKTQQEEAVITAVREFDGELAQKIIDEMFLFENLVDVDDRSIQRLLQEVDSESLLIALKGAEQPLREKFLRNMSQRAADILRDDLANRGPVRLSQVENEQKAILLIVRRLAETGEMVIGSGEDTYV [H126W] |
| disrupting interaction strength | MSNLTGTDKSVILLMTIGEDRAAEVFKHLSQREVQTLSAAMANVTQISNKQLTDVLAEFEQEAEQFAALNINANDYLRSVLVKALGEERAASLLEDILETRDTASGIETLNFMEPQSAADLIRDEHPQIIATILVHLKRAQAADILALFDERLRHDVMLWIATFGGVQPAALAELTEVLNGLLDGQNLKRSKMGGVRTAAEIINLMKTQQEEAVITAVREFDGELAQKIIDEMFLFENLVDVDDRSIQRLLQEVDSESLLIALKGAEQPLREKFLRNMSQRAADILRDDLANRGPVRLSQVENEQKAILLIVRRLAETGEMVIGSGEDTYV [R160W] |
| disrupting interaction strength | MSNLTGTDKSVILLMTIGEDRAAEVFKHLSQREVQTLSAAMANVTQISNKQLTDVLAEFEQEAEQFAALNINANDYLRSVLVKALGEERAASLLEDILETRDTASGIETLNFMEPQSAADLIRDWHPQIIATILVHLKRAQAADILALFDERLRHDVMLRIATFGGVQPAALAELTEVLNGLLDGQNLKRSKMGGVRTAAEIINLMKTQQEEAVITAVREFDGELAQKIIDEMFLFENLVDVDDRSIQRLLQEVDSESLLIALKGAEQPLREKFLRNMSQRAADILRDDLANRGPVRLSQVENEQKAILLIVRRLAETGEMVIGSGEDTYV [E125W] |
